According to patent CN101875694A:

Molecular target: 重组人肿瘤坏死因子TNFα (Recombinant Human TNF-α, Peprotech Asia, Cat 300-01A) (human) (UniProt P01375)
Experiment: cell-based or functional assay

UniProt P01375, sequence (P01375 77-233 limits assumed): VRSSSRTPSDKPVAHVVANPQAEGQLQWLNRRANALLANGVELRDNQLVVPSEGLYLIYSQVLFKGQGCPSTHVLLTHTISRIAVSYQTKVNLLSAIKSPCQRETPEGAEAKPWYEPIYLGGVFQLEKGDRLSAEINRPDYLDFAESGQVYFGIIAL

小鼠存活率, C57BL/6 given 1μg rhTNFα and D-galactosamine, 5μg antibody: 0%
Substance: 野生型全长的D2E7抗体 (full-length wild-type D2E7) (antibody)
